Results on one molecule are retold here after US20260042831A1 (XENTRIA, published 2026).

Where “and” joins values, the source holds several entries; their conditions need not be identical. Equal entries are not always repeated.

Assay [1] has as its target T1, His-tagged FcγRIIIa (UniProt P08637 17-208, limits assumed).
T1 construct: His-tagged and captured on anti-penta-His biosensors; also called CD16
Nature of the assay: Octet QK384, steady-state KD from binding curves; range stated for the batches.

Assay [2] concerns the target T2, FcγRI (UniProt P12314 16-288, limits assumed).
T2 construct: It was immobilized on Ni-NTA biosensors, which implies a His tag; The ELISA paragraph calls it 'His tab-labeled recombinant purified FcγRI'; also called CD64
Nature of the assay: Octet QK384, FcγRI on Ni-NTA biosensors; range stated for the batches. (In BLI a coated tip is dipped into the sample, and binding shifts an interference pattern.)

The target in assay [3] is T2, FcγRI. Briefly: Octet QK384, FcγRI on Ni-NTA biosensors, 7 XTMAB-16 concentrations, 1:1 model fit.
For assay [4], the target named is TNFα from dog (dog, UniProt P51742 77-233). Briefly: ELISA, cross-species binding studies. On the technique in general: ELISA stands for enzyme-linked immunosorbent assay.
Sequence of TNFα from dog (P51742 77-233 limits assumed): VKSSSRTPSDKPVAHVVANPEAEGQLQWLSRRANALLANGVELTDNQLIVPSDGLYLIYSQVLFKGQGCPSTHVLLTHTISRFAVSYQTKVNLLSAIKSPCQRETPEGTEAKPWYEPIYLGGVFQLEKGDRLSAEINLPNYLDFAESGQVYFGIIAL
Assay [5] addresses TNFα from cynomolgus monkey (cynomolgus monkey, UniProt P79337 77-233, limits assumed). Nature of the assay: ELISA, cross-species binding studies.
In assay [6] the target is T3, TNFα from rat (rat, UniProt P16599 80-235).
T3 sequence (looked up): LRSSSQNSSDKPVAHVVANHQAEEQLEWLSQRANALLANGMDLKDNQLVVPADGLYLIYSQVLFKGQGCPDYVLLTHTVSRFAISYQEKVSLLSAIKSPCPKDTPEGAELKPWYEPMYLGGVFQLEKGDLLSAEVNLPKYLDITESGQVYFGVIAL
Nature of the assay: ELISA, cross-species binding studies.

The target in assay [7] is TNFα from rhesus monkey (rhesus monkey, UniProt P48094 77-233). Briefly: ELISA, cross-species binding studies.
Sequence of TNFα from rhesus monkey (P48094 77-233 limits assumed): as the sequence (P51742 77-233 limits assumed) above, with K2R, E21Q, S30N, I49V, D53E, T72N, F83I, T109A, N140D counted along it

T2 sequence (P12314 16-288 limits assumed): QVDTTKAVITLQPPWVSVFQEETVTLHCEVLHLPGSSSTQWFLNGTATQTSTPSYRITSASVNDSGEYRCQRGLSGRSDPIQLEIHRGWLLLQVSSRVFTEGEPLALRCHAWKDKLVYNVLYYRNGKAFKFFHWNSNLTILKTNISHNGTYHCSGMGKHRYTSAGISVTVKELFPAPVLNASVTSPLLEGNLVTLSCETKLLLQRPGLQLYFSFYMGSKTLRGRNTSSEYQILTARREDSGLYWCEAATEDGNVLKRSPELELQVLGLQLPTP
Sequence of TNFα from cynomolgus monkey (P79337 77-233 limits assumed): as the sequence (P51742 77-233 limits assumed) above, with K2R, E21Q, S30N, L37V, I49V, D53E, T72N, F83I, T109A, N140D counted along it
T1 sequence (P08637 17-208 limits assumed): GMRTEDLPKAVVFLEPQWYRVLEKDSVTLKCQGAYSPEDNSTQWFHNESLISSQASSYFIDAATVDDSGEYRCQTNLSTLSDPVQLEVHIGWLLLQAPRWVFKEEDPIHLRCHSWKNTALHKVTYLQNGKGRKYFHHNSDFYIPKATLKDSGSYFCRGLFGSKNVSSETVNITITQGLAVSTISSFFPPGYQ

B1: XTMAB-16 (antibody, human IgG1, kappa)
heavy: not shown
light: DILLTQSPAILSVSPGERVSFSCRASQFVGSSIHWYQQRTNGSPRLLIKYASESMSGIPSRFSGSGSGTDFTLSINTVESEDIADYYCQQSHSWPFTFGSGTNLEVKRTVAAPSVFIFPPSDEQLKSGTASVVCLLNNFYPREAKVQWKVDNALQSGNSQESVTEQDSKDSTYSLSSTLTLSKADYEKHKVYACEVTHQGLSSPVTKSFNRGEC
notes: The general description says the antibody is sialylated with N-acetylneuraminic acid (Asn 297 in embodiments) and glycosylated at Asn 300; All batches (A-H); also called XTMB-16
What is called Kd is the equilibrium constant for the complex coming apart. As to B1, the Kd in assay [1] is 300 nM; in assay [2] it was 0.5 nM and 0.9 nM; in assay [3] it was 0.68 nM and 0.63 nM. For the same molecule, the binding result in assay [4], in assay [5], in assay [6] and in assay [7] was “no binding” each time.
